This note sets out measurements from the supplement of paper PMC9428881.

± gives the standard error.

This data set can be described thus: background-corrected fluorescence of 3'-dye-labeled ssDNA relative to brightest sequence (3'-GCGCG) (fraction); higher = brighter dye fluorescence (less quenching). The protocol: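 Single-stranded DNA is synthesized in situ on glass microarrays by 5'->3' photolithographic synthesis, with a Cy3 or Cy5 phosphoramidite coupled at the 3' end next to all 1024 permuted pentamers P1-P5. The construct is 5'-T5-(ACGT minus P5..P1 trinucleotides)-T15-P5P4P3P2P1-dye-3'; the dye is a 3' terminal modification, not part of the sequence. Arrays were scanned at 532 nm (Cy3) or 635 nm (Cy5), background from unlabeled oligos was subtracted, and values are averaged over 10 replicate features per array and at least 3 independent syntheses.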

As to “TTTTTGCATCAGCATCATGATTTTTTTTTTTTTTTTGTGC [CGTGT]”, the background-corrected fluorescence (dye: Cy3 (3' terminal)) is 0.494 ± 0.0099 and the background-corrected fluorescence (dye: Cy5 (3' terminal)) was determined as 0.402 ± 0.027.
The matching figures for “TTTTTGCATCAGCATCATGCTTTTTTTTTTTTTTTTGTGA [AGTGT]”: 0.68 ± 0.026 and 0.564 ± 0.039.
For “TTTTTGCATCAGCATGAGCATTTTTTTTTTTTTTTTGTCT [TCTGT]”, in that order: 0.48 ± 0.021 and 0.367 ± 0.028.
Turning to “TTTTTGCATCAGCATGATCATTTTTTTTTTTTTTTTGTCG [GCTGT]”, the background-corrected fluorescence is, setting by setting: (dye: Cy3 (3' terminal)) 0.552 ± 0.029; (dye: Cy5 (3' terminal)) 0.392 ± 0.023.
Consider “TTTTTGCATCAGCATGATGATTTTTTTTTTTTTTTTGTCC [CCTGT]”, for which the background-corrected fluorescence is, setting by setting: (dye: Cy3 (3' terminal)) 0.401 ± 0.014; (dye: Cy5 (3' terminal)) 0.289 ± 0.018.
For “TTTTTGCATCAGCATGATGCTTTTTTTTTTTTTTTTGTCA [ACTGT]”, in that order: 0.487 ± 0.069 and 0.439 ± 0.08.
Turning to “TTTTTGCATCAGCATGCGCATTTTTTTTTTTTTTTTGTAT [TATGT]”, the background-corrected fluorescence is, setting by setting: (dye: Cy3 (3' terminal)) 0.53 ± 0.024; (dye: Cy5 (3' terminal)) 0.418 ± 0.031.
As to “TTTTTGCATCAGCATGCTCATTTTTTTTTTTTTTTTGTAG [GATGT]”, the background-corrected fluorescence (dye: Cy3 (3' terminal)) is 0.535 ± 0.015 and the background-corrected fluorescence (dye: Cy5 (3' terminal)) is 0.443 ± 0.064.
For “TTTTTGCATCAGCATGCTGATTTTTTTTTTTTTTTTGTAC [CATGT]”, in that order: 0.471 ± 0.041 and 0.344 ± 0.022.
For “TTTTTGCATCAGCATGCTGCTTTTTTTTTTTTTTTTGTAA [AATGT]”, in that order: 0.596 ± 0.019 and 0.478 ± 0.03.
For “TTTTTGCATCATCAGCAGCATTTTTTTTTTTTTTTTGGTT”, the background-corrected fluorescence by setting is: (dye: Cy3 (3' terminal)) 0.624 ± 0.019; (dye: Cy5 (3' terminal)) 0.477 ± 0.037.
For “TTTTTGCATCATCAGCATCATTTTTTTTTTTTTTTTGGTG [GTGGT]”, in that order: 0.568 ± 0.028 and 0.456 ± 0.022.
For “TTTTTGCATCATCAGCATGATTTTTTTTTTTTTTTTGGTC [CTGGT]”, in that order: 0.478 ± 0.024 and 0.387 ± 0.04.
For “TTTTTGCATCATCAGCATGCTTTTTTTTTTTTTTTTGGTA [ATGGT]”, in that order: 0.609 ± 0.0091 and 0.492 ± 0.033.
With “TTTTTGCATCATCATCAGCATTTTTTTTTTTTTTTTGGGT”, the background-corrected fluorescence (dye: Cy3 (3' terminal)) was found to be 0.686 ± 0.028 and the background-corrected fluorescence (dye: Cy5 (3' terminal)) is 0.586 ± 0.044.
For “TTTTTGCATCATCATCATCATTTTTTTTTTTTTTTTGGGG [GGGGT]”, in that order: 0.66 ± 0.023 and 0.613 ± 0.042.
For “TTTTTGCATCATCATCATGATTTTTTTTTTTTTTTTGGGC [CGGGT]”, in that order: 0.591 ± 0.026 and 0.516 ± 0.027.
The matching figures for “TTTTTGCATCATCATCATGCTTTTTTTTTTTTTTTTGGGA [AGGGT]”: 0.757 ± 0.01 and 0.725 ± 0.054.
On to “TTTTTGCATCATCATGAGCATTTTTTTTTTTTTTTTGGCT [TCGGT]”, for which the background-corrected fluorescence is, setting by setting: (dye: Cy3 (3' terminal)) 0.549 ± 0.017; (dye: Cy5 (3' terminal)) 0.442 ± 0.053.
The matching figures for “TTTTTGCATCATCATGATCATTTTTTTTTTTTTTTTGGCG [GCGGT]”: 0.631 ± 0.026 and 0.516 ± 0.065.
Regarding “TTTTTGCATCATCATGATGATTTTTTTTTTTTTTTTGGCC [CCGGT]”, the background-corrected fluorescence (dye: Cy3 (3' terminal)) came out at 0.46 ± 0.032 and the background-corrected fluorescence (dye: Cy5 (3' terminal)) came out at 0.369 ± 0.03.
In the case of “TTTTTGCATCATCATGATGCTTTTTTTTTTTTTTTTGGCA [ACGGT]”, the background-corrected fluorescence by setting is: (dye: Cy3 (3' terminal)) 0.562 ± 0.015; (dye: Cy5 (3' terminal)) 0.472 ± 0.032.
For “TTTTTGCATCATCATGCGCATTTTTTTTTTTTTTTTGGAT [TAGGT]”, in that order: 0.617 ± 0.023 and 0.458 ± 0.036.
The matching figures for “TTTTTGCATCATCATGCTCATTTTTTTTTTTTTTTTGGAG [GAGGT]”: 0.589 ± 0.02 and 0.494 ± 0.035.
As for “TTTTTGCATCATCATGCTGATTTTTTTTTTTTTTTTGGAC [CAGGT]”, the background-corrected fluorescence (dye: Cy3 (3' terminal)) is 0.5012 ± 0.0043 and the background-corrected fluorescence (dye: Cy5 (3' terminal)) was 0.404 ± 0.046.
“TTTTTGCATCATCATGCTGCTTTTTTTTTTTTTTTTGGAA [AAGGT]”: the background-corrected fluorescence (dye: Cy3 (3' terminal)) amounted to 0.653 ± 0.024 and the background-corrected fluorescence (dye: Cy5 (3' terminal)) turned out to be 0.557 ± 0.029.
The matching figures for “TTTTTGCATCATGAGCAGCATTTTTTTTTTTTTTTTGCTT [TTCGT]”: 0.514 ± 0.029 and 0.384 ± 0.038.
“TTTTTGCATCATGAGCATCATTTTTTTTTTTTTTTTGCTG [GTCGT]”: the background-corrected fluorescence came out at 0.463 ± 0.018 (dye: Cy3 (3' terminal)) and 0.358 ± 0.022 (dye: Cy5 (3' terminal)).
